Experimental data reported in patent US20110183902A1.

Molecular target: mouse GCG-R (in pancreatic islets of mice) (mouse) (UniProt Q61606)
Assay: cell-based or functional assay

Chain of mouse GCG-R (in pancreatic islets of mice) (mouse) (Q61606 27-485): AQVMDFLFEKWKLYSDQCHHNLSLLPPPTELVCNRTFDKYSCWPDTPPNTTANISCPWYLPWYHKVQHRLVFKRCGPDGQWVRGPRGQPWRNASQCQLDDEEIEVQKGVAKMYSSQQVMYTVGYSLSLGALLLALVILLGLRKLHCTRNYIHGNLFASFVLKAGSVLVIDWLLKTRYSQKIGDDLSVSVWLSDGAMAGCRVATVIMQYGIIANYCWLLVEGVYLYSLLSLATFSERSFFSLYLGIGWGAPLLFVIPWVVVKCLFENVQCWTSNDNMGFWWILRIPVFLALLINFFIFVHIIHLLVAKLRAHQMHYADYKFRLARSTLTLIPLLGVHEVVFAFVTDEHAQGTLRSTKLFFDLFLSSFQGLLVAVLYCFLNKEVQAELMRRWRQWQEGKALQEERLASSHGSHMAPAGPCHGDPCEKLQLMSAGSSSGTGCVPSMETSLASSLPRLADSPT

- fold-increase in fractional GSIS, GCG-R-/- islets relative to WT: 32 % reduction
Substance: native OXM peptide (species not stated, Example 11)
